Experiment [1] has as its target cytosolic domain of yeast Tom70 (His-Tom70_(38–617)) (yeast (Saccharomyces cerevisiae)) (UniProt P07213). As to the kind of experiment: pull-down; purified His-Tom70cd (50 pmol per 100 μl) pre-bound to Ni-NTA beads, incubated 40 min at 30 °C with typically 7% (v/v) reticulocyte lysate containing the [35S]-labelled protein; 10 mM MOPS/KOH, 20 mM imidazole, 150 mM KCl, 1% BSA, pH 7.2; eluted with 1 M imidazole, SDS-PAGE, phosphorimager; in some samples the bead-bound Tom70cd was pretreated with NEM and washed before the lysate was added.

Experiment [2] concerns the target Tom70cd pretreated with N-ethylmaleimide (NEM) (yeast (Saccharomyces cerevisiae)) (UniProt P07213). Described as above.
Experiment [3] deals with Tom70 in the outer membrane of isolated yeast mitochondria (wild type) (S. cerevisiae (endogenous in isolated yeast mitochondria)) (UniProt P07213).
Chain of Tom70 in the outer membrane of isolated yeast mitochondria (wild type) (S. cerevisiae (endogenous in isolated yeast mitochondria)) (P07213 whole entry): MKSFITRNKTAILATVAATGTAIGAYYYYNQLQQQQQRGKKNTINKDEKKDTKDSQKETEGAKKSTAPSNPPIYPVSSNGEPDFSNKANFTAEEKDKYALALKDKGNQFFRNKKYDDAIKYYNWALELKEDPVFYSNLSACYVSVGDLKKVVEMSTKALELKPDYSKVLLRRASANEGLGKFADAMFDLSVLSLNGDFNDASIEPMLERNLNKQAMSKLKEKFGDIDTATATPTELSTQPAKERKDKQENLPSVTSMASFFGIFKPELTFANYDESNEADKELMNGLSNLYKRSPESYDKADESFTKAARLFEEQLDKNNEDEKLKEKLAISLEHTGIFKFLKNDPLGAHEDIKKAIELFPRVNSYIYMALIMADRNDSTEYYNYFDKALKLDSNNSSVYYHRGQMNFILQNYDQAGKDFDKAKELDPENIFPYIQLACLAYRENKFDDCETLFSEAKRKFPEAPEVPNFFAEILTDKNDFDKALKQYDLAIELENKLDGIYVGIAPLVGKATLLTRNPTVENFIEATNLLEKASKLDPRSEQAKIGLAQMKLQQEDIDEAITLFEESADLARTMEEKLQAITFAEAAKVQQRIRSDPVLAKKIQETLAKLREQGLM

Chain of cytosolic domain of yeast Tom70 (His-Tom70_(38–617)) (yeast (Saccharomyces cerevisiae)) (P07213 38-617): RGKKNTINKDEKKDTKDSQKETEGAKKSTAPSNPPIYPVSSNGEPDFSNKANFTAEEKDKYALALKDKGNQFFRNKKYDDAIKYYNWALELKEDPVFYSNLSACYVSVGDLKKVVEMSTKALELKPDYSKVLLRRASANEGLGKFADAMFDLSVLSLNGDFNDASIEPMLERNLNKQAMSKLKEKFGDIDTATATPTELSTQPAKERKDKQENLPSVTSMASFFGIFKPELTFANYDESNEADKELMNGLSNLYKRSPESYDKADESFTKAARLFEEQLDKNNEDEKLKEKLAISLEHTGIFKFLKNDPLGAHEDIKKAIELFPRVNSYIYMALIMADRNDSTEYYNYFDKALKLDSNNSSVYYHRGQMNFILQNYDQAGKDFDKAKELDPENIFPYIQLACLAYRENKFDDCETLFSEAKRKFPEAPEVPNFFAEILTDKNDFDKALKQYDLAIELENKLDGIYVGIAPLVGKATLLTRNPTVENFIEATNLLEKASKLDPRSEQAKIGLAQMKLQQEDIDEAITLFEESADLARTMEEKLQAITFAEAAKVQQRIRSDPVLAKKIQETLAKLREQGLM
Chain of AAC_(Δpos) (AAC with all positively charged residues of the matrix loops exchanged against glycine) (P02723 whole entry, stated change not applied): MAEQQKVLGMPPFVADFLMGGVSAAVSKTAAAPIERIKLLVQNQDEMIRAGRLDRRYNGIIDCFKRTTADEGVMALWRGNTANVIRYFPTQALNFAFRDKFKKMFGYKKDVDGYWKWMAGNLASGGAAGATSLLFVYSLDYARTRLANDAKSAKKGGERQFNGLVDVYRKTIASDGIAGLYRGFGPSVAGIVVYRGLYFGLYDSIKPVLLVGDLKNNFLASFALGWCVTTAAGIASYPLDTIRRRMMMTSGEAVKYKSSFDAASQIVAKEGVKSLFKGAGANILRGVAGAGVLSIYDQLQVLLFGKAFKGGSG
Chain of Tom70cd pretreated with N-ethylmaleimide (NEM) (yeast (Saccharomyces cerevisiae)) (P07213 38-617): as the sequence (P07213 38-617) above
Chain of S. cerevisiae AAC2 (P18239 whole entry): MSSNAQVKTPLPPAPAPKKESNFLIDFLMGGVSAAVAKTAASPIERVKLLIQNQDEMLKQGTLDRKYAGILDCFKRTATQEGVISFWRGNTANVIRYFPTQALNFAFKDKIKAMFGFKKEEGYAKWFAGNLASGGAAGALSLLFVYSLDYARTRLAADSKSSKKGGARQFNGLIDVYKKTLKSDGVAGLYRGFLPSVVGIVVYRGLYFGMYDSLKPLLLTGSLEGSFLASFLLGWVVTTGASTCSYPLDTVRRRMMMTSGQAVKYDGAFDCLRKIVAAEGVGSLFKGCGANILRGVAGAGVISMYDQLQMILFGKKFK
Chain of ADP/ATP carrier (AAC) of Neurospora crassa, wild type (P02723 whole entry): as the sequence (P02723 whole entry, stated change not applied) above

As to “AAC_(Δpos) (AAC with all positively charged residues of the matrix loops exchanged against glycine) (from UniProt P02723 1-313) (natural protein)”, in experiment [1], the percent of the total radiolabelled protein bound fell in the range of 15 to 20%. As to “ADP/ATP carrier (AAC) of Neurospora crassa, wild type (from UniProt P02723 1-313) (natural protein)”, the reduction of the binding efficiency against untreated Tom70cd in experiment [2] is 50%. As to “S. cerevisiae AAC2 (from UniProt P18239 1-318) (natural protein)”, in experiment [3], the decrease in binding of [35S]-AAC2 to isolated mitochondria containing wild type Tom70, pretreated with 2 mM NEM against untreated (Fig. 3f) amounted to 50%.

These data come from paper PMC7596997.
